Data on one protein can be found in FireProtDB (doi:10.1016/0022-2836(92)90557-z).

For the series the following is noted: Bacillus amyloliquefaciens; pH 6.3; 25 °C; Urea; Fluorescence; MES 1.00 M; NaCl 613 mM; reversible: yes; whole UniProt chain shown.

B1: Ribonuclease wild type, P00648 (protein)
chain: MMKMEGIALKKRLSWISVCLLVLVSAAGMLFSTAAKTETSSHKAHTEAQVINTFDGVADYLQTYHKLPDNYITKSEAQALGWVASKGNLADVAPGKSIGGDIFSNREGKLPGKSGRTWREADINYTSGFRNSDRILYSSDWLIYKTTDHYQTFTKIR
B1: the “denaturant midpoint (higher = more stable)” value was found to be 4.58 M.
